In patent US20260049138A1 (Chugai, published 2026):
Substitutions are numbered along the chain they refer to. Names and notes keep the numbering of the source.

B1: CE115HA000 S74P one-arm antibody (antibody, human IgG1, kappa, L234A L235A, N297A, name in Kabat numbering)
heavy: QVQLVESGGGVVQPGRSLRLSCAASGFTFSNAWMHWVRQAPGKGLEWVAQIKAKSNNYATYYAESVKGRFTISRDDPKNSLYLQMNSLKTEDTAVYYCRYVHYGAYYGVDAWGQGTTVTVSSASTKGPSVFPLAPSSKSTSGGTAALGCLVKDYFPEPVTVSWNSGALTSGVHTFPAVLQSSGLYSLSSVVTVPSSSLGTQTYICNVNHKPSNTKVDKKVEPKSCDKTHTCPPCPAPEAAGGPSVFLFPPKPKDTLMISRTPEVTCVVVDVSHEDPEVKFNWYVDGVEVHNAKTKPREEQYASTYRVVSVLTVLHQDWLNGKEYKCKVSNKALPAPIEKTISKAKGQPREPQVYTLPPSRCELTKNQVSLSCAVKGFYPSDIAVEWESNGQPENNYKTTPPVLDSDGSFFLVSKLTVDKSRWQQGNVFSCSVMHEALHNHYTQKSLSLSPDYKDDDDK
chain: EPKSSDKTHTCPPCPAPELLGGPSVFLFPPKPKDTLMISRTPEVTCVVVDVSHEDPEVKFNWYVDGVEVHNAKTKPREEQYNSTYRVVSVLTVLHQDWLNGKEYKCKVSNKALPAPIEKTISKAKGQPREPQVCTLPPSRDELTKNQVSLWCLVKGFYPSDIAVEWESNGQPENNYKTTPPVLDSDGSFFLYSKLTVDKSRWQQGNVFSCSVMHEALHNRYTQKSLSLSP
light: DIVMTQSPLSLPVTPGEPASISCRSSQSLVHSNRNTYLHWYQQKPGQAPRLLIYKVSNRFSGVPDRFSGSGSGTDFTLKISRVEAEDVGVYYCGQGTQVPYTFGQGTKLEIKRTVAAPSVFIFPPSDEQLKSGTASVVCLLNNFYPREAKVQWKVDNALQSGNSQESVTEQDSKDSTYSLSSTLTLSKADYEKHKVYACEVTHQGLSSPVTKSFNRGEC
B2: CE115HA000 S77T one-arm antibody (antibody, human IgG1, kappa, L234A L235A, N297A, name in Kabat numbering)
heavy: B1 heavy with P77S, S80T
chain: B1 chain
light: B1 light
B3: CE115HA000 T28D one-arm antibody (antibody, human IgG1, kappa, L234A L235A, N297A, name in Kabat numbering)
heavy: B1 heavy with T28D, P77S
chain: B1 chain
light: B1 light
B4: CE115HA000 T28S one-arm antibody (antibody, human IgG1, kappa, L234A L235A, N297A, name in Kabat numbering)
heavy: B1 heavy with T28S, P77S
chain: B1 chain
light: B1 light
B5: CE115HA000 T57A one-arm antibody (antibody, human IgG1, kappa, L234A L235A, N297A, name in Kabat numbering)
heavy: B1 heavy with T60A, P77S
chain: B1 chain
light: B1 light
B6: CE115HA000 T57I one-arm antibody (antibody, human IgG1, kappa, L234A L235A, N297A, name in Kabat numbering)
heavy: B1 heavy with T60I, P77S
chain: B1 chain
light: B1 light
B7: CE115HA000 T57K one-arm antibody (antibody, human IgG1, kappa, L234A L235A, N297A, name in Kabat numbering)
heavy: B1 heavy with T60K, P77S
chain: B1 chain
light: B1 light
B8: CE115HA000 T57N one-arm antibody (antibody, human IgG1, kappa, L234A L235A, N297A, name in Kabat numbering)
heavy: B1 heavy with T60N, P77S
chain: B1 chain
light: B1 light
B9: CE115HA000 V11L one-arm antibody (antibody, human IgG1, kappa, L234A L235A, N297A, name in Kabat numbering)
heavy: B1 heavy with V11L, P77S
chain: B1 chain
light: B1 light
B10: CE115HA000 V95A one-arm antibody (antibody, human IgG1, kappa, L234A L235A, N297A, name in Kabat numbering)
heavy: B1 heavy with P77S, V101A
chain: B1 chain
light: B1 light
B11: CE115HA000 V95D one-arm antibody (antibody, human IgG1, kappa, L234A L235A, N297A, name in Kabat numbering)
heavy: B1 heavy with P77S, V101D
chain: B1 chain
light: B1 light
B12: CE115HA000 V95E one-arm antibody (antibody, human IgG1, kappa, L234A L235A, N297A, name in Kabat numbering)
heavy: B1 heavy with P77S, V101E
chain: B1 chain
light: B1 light
B13: CE115HA000 V95G one-arm antibody (antibody, human IgG1, kappa, L234A L235A, N297A, name in Kabat numbering)
heavy: B1 heavy with P77S, V101G
chain: B1 chain
light: B1 light
B14: CE115HA000 V95K one-arm antibody (antibody, human IgG1, kappa, L234A L235A, N297A, name in Kabat numbering)
heavy: B1 heavy with P77S, V101K
chain: B1 chain
light: B1 light
B15: CE115HA000 V95S one-arm antibody (antibody, human IgG1, kappa, L234A L235A, N297A, name in Kabat numbering)
heavy: B1 heavy with P77S, V101S
chain: B1 chain
light: B1 light
B16: CE115HA000 V100cD one-arm antibody (antibody, human IgG1, kappa, L234A L235A, N297A, name in Kabat numbering)
heavy: B1 heavy with P77S, V109D
chain: B1 chain
light: B1 light
B17: CE115HA000 V100cE one-arm antibody (antibody, human IgG1, kappa, L234A L235A, N297A, name in Kabat numbering)
heavy: B1 heavy with P77S, V109E
chain: B1 chain
light: B1 light
B18: CE115HA000 V100cP one-arm antibody (antibody, human IgG1, kappa, L234A L235A, N297A, name in Kabat numbering)
heavy: B1 heavy with P77S, V109P
chain: B1 chain
light: B1 light
B19: CE115HA000 W33A one-arm antibody (antibody, human IgG1, kappa, L234A L235A, N297A, name in Kabat numbering)
heavy: B1 heavy with W33A, P77S
chain: B1 chain
light: B1 light
B20: CE115HA000 W33D one-arm antibody (antibody, human IgG1, kappa, L234A L235A, N297A, name in Kabat numbering)
heavy: B1 heavy with W33D, P77S
chain: B1 chain
light: B1 light
B21: CE115HA000 W33F one-arm antibody (antibody, human IgG1, kappa, L234A L235A, N297A, name in Kabat numbering)
heavy: B1 heavy with W33F, P77S
chain: B1 chain
light: B1 light
B22: CE115HA000 W33H one-arm antibody (antibody, human IgG1, kappa, L234A L235A, N297A, name in Kabat numbering)
heavy: B1 heavy with W33H, P77S
chain: B1 chain
light: B1 light
B23: CE115HA000 W33L one-arm antibody (antibody, human IgG1, kappa, L234A L235A, N297A, name in Kabat numbering)
heavy: B1 heavy with W33L, P77S
chain: B1 chain
light: B1 light
B24: CE115HA000 W33Y one-arm antibody (antibody, human IgG1, kappa, L234A L235A, N297A, name in Kabat numbering)
heavy: B1 heavy with W33Y, P77S
chain: B1 chain
light: B1 light
B25: CE115HA000 Y55D one-arm antibody (antibody, human IgG1, kappa, L234A L235A, N297A, name in Kabat numbering)
heavy: B1 heavy with Y58D, P77S
chain: B1 chain
light: B1 light
B26: CE115HA000 Y55G one-arm antibody (antibody, human IgG1, kappa, L234A L235A, N297A, name in Kabat numbering)
heavy: B1 heavy with Y58G, P77S
chain: B1 chain
light: B1 light
B27: CE115HA000 Y55S one-arm antibody (antibody, human IgG1, kappa, L234A L235A, N297A, name in Kabat numbering)
heavy: B1 heavy with Y58S, P77S
chain: B1 chain
light: B1 light
B28: CE115HA000 Y58A one-arm antibody (antibody, human IgG1, kappa, L234A L235A, N297A, name in Kabat numbering)
heavy: B1 heavy with Y61A, P77S
chain: B1 chain
light: B1 light
B29: CE115HA000 Y58D one-arm antibody (antibody, human IgG1, kappa, L234A L235A, N297A, name in Kabat numbering)
heavy: B1 heavy with Y61D, P77S
chain: B1 chain
light: B1 light
B30: CE115HA000 Y58K one-arm antibody (antibody, human IgG1, kappa, L234A L235A, N297A, name in Kabat numbering)
heavy: B1 heavy with Y61K, P77S
chain: B1 chain
light: B1 light
B31: CE115HA000 Y58L one-arm antibody (antibody, human IgG1, kappa, L234A L235A, N297A, name in Kabat numbering)
heavy: B1 heavy with Y61L, P77S
chain: B1 chain
light: B1 light
B32: CE115HA000 Y58N one-arm antibody (antibody, human IgG1, kappa, L234A L235A, N297A, name in Kabat numbering)
heavy: B1 heavy with Y61N, P77S
chain: B1 chain
light: B1 light

Biological target: T1, CD3ε homodimer protein (human, UniProt P07766 23-126, limits assumed, sulfo-tag or biotin label in the ECL assays; amine-coupled to the chip in SPR)
T1 construct: also called human CD3ε homodimer protein; CD3 (CD3ε)
T1 sequence (P07766 23-126 limits assumed): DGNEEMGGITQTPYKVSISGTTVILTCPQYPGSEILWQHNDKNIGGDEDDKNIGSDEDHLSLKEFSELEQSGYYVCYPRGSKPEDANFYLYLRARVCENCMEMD
Test: SPR Biacore T200; CD3ε homodimer on CM4 chip;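 further: Single-residue variant antibodies injected as analyte over CD3ε homodimer immobilized by amine coupling, run at 25 °C in HBS-EP+ buffer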

Row | Binder | ratio of amounts bound Z=Y/X (altered form / CE115HA000)
1 | B1 | 0.91
2 | B2 | 0.9
3 | B3 | 0.56
4 | B4 | 0.91
5 | B5 | 0.98
6 | B6 | 0.61
7 | B7 | 1.32
8 | B8 | 0.97
9 | B9 | 1
10 | B10 | 0.11
11 | B11 | 0.24
12 | B12 | 0.24
13 | B13 | 0.19
14 | B14 | 0.64
15 | B15 | 0.22
16 | B16 | 0.44

Row | Binder | ratio of amounts bound Z=Y/X (altered form / CE115HA000)
17 | B17 | 0.46
18 | B18 | 0.2
19 | B19 | 0.1
20 | B20 | 0.1
21 | B21 | 0.65
22 | B22 | 0.13
23 | B23 | 0.1
24 | B24 | 0.66
25 | B25 | 0.45
26 | B26 | 0.65
27 | B27 | 0.26
28 | B28 | 0.22
29 | B29 | 0.11
30 | B30 | 0.3
31 | B31 | 0.27
32 | B32 | 0.33
